{
  "source": "paper PMC9352680",
  "about": "“A comprehensive thermodynamic model for RNA binding by the Saccharomyces cerevisiae Pumilio protein PUF4”",
  "binders": {"B1": {"name": "Ic_S2_P5E.1_K5.1_C5.1_H5.1_A5.1_[T6C]_[A7T]_F5.1_[T9C]_[A10C]_T5.1 (ssRNA)", "RNA": "UUUGAUUAAUAUGAUAUCGUUCUUUCUUGUAUCUUCCUUCUUUCUCGAUAUCAUAUUAAUCUUU"}, "B2": {"name": "Ic_S2_P5E.1_K5.1_C5.1_H5.1_A5.1_[T5C]_[T6G]_[A7T]_F5.1_[T8C]_[A10G]_T5.1 (ssRNA)", "RNA": "B1 RNA with U32C, C33G, U35C, C36U, C37G"}, "B3": {"name": "Ic_S2_P5E.1_K5.1_C5.1_H5.1_A5.1_[T5C]_[T6A]_[A7G]_F5.1_[T9G]_[A10C]_T5.1 (ssRNA)", "RNA": "B1 RNA with U32C, C33A, U34G, C36G"}, "B4": {"name": "Ic_S2_P5E.1_K5.1_C5.1_H5.1_A5.1_[T5A]_[T6A]_F5.1_[T9C]_[A10T]_T5.1 (ssRNA)", "RNA": "B1 RNA with U32A, C33A, U34A, C37U"}, "B5": {"name": "Ic_S2_P5E.1_K5.1_C5.1_H5.1_A5.1_[T6C]_[A7C]_F5.1_[T8A]_[T9G]_[A10C]_T5.1 (ssRNA)", "RNA": "B1 RNA with U34C, U35A, C36G"}, "B6": {"name": "Ic_S2_P5E.1_K5.1_C5.1_H5.1_A5.1_[T5C]_[T6C]_[A7T]_F5.1_[T8A]_[A10T]_T5.1 (ssRNA)", "RNA": "B1 RNA with U32C, U35A, C36U, C37U"}, "B7": {"name": "Ic_S2_P5E.1_K5.1_C5.1_H5.1_A5.1_[T5C]_[A7C]_F5.1_[T8C]_[T9C]_[A10T]_T5.1 (ssRNA)", "RNA": "B1 RNA with U32C, C33U, U34C, U35C, C37U"}, "B8": {"name": "Ic_S2_P5E.1_K5.1_C5.1_H5.1_A5.1_[T5A]_[T6C]_[A7C]_F5.1_[T8A]_[T9C]_[A10C]_T5.1 (ssRNA)", "RNA": "B1 RNA with U32A, U34C, U35A"}, "B9": {"name": "Ic_S2_P5E.1_K5.1_C5.1_H5.1_A5.1_[T5C]_[A7C]_F5.1_[A10T]_T5.1 (ssRNA)", "RNA": "B1 RNA with U32C, C33U, U34C, C36U, C37U"}, "B10": {"name": "Ic_S2_P5E.1_K5.1_C5.1_H5.1_A5.1_[T6C]_[A7C]_F5.1_[T9A]_[A10T]_T5.1 (ssRNA)", "RNA": "B1 RNA with U34C, C36A, C37U"}, "B11": {"name": "Ic_S2_P5E.1_K5.1_C5.1_H5.1_A5.1_[T5G]_[A7G]_F5.1_[T8C]_[T9C]_T5.1 (ssRNA)", "RNA": "B1 RNA with U32G, C33U, U34G, U35C, C37A"}, "B12": {"name": "Ic_S2_P5E.1_K5.1_C5.1_H5.1_A5.1_[T5G]_[T6C]_[A7T]_F5.1_[T8C]_[T9G]_[A10T]_T5.1 (ssRNA)", "RNA": "B1 RNA with U32G, U35C, C36G, C37U"}, "B13": {"name": "Ic_S2_P5E.1_K5.1_C5.1_H5.1_A5.1_[T5G]_[A7T]_F5.1_[T9A]_[A10T]_T5.1 (ssRNA)", "RNA": "B1 RNA with U32G, C33U, C36A, C37U"}, "B14": {"name": "Ic_S2_P5E.1_K5.1_C5.1_H5.1_A5.1_[T5G]_[T6C]_[A7C]_F5.1_[T9C]_T5.1 (ssRNA)", "RNA": "B1 RNA with U32G, U34C, C37A"}, "B15": {"name": "Ic_S2_P5E.1_K5.1_C5.1_H5.1_A5.1_[T6C]_F5.1_[T8G]_[A10C]_T5.1 (ssRNA)", "RNA": "B1 RNA with U34A, U35G, C36U"}, "B16": {"name": "Ic_S2_P5E.1_K5.1_C5.1_H5.1_A5.1_[T5A]_[A7T]_F5.1_[T8A]_[A10C]_T5.1 (ssRNA)", "RNA": "B1 RNA with U32A, C33U, U35A, C36U"}, "B17": {"name": "Ic_S2_P5E.1_K5.1_C5.1_H5.1_A5.1_[T5A]_F5.1_[T9G]_[A10G]_T5.1 (ssRNA)", "RNA": "B1 RNA with U32A, C33U, U34A, C36G, C37G"}, "B18": {"name": "Ic_S2_P5E.1_K5.1_C5.1_H5.1_A5.1_[T5C]_[T6A]_[A7G]_F5.1_[A10G]_T5.1 (ssRNA)", "RNA": "B1 RNA with U32C, C33A, U34G, C36U, C37G"}, "B19": {"name": "Ic_S2_P5E.1_K5.1_C5.1_H5.1_A5.1_[T6A]_[A7T]_F5.1_[T8C]_[T9A]_[A10G]_T5.1 (ssRNA)", "RNA": "B1 RNA with C33A, U35C, C36A, C37G"}, "B20": {"name": "Ic_S2_P5E.1_K5.1_C5.1_H5.1_A5.1_[T5G]_[T6C]_F5.1_[T8C]_[A10T]_T5.1 (ssRNA)", "RNA": "B1 RNA with U32G, U34A, U35C, C36U, C37U"}, "B21": {"name": "Ic_S2_P5E.1_K5.1_C5.1_H5.1_A5.1_[T6A]_[A7T]_F5.1_[T8A]_[T9C]_[A10G]_T5.1 (ssRNA)", "RNA": "B1 RNA with C33A, U35A, C37G"}, "B22": {"name": "Ic_S2_P5E.1_K5.1_C5.1_H5.1_A5.1_[T5A]_[T6C]_[A7C]_F5.1_[T8G]_T5.1 (ssRNA)", "RNA": "B1 RNA with U32A, U34C, U35G, C36U, C37A"}, "B23": {"name": "Ic_S2_P5E.1_K5.1_C5.1_H5.1_A5.1_[T6C]_F5.1_[T8A]_[A10G]_T5.1 (ssRNA)", "RNA": "B1 RNA with U34A, U35A, C36U, C37G"}},
  "note": "Substitutions are numbered along the chain they refer to. In names and notes the source's numbering stands.",
  "data": [
    {"biological_target": "T1, PUF4 RNA-binding domain (Saccharomyces cerevisiae, UniProt P25339 537-888)", "T1 sequence": "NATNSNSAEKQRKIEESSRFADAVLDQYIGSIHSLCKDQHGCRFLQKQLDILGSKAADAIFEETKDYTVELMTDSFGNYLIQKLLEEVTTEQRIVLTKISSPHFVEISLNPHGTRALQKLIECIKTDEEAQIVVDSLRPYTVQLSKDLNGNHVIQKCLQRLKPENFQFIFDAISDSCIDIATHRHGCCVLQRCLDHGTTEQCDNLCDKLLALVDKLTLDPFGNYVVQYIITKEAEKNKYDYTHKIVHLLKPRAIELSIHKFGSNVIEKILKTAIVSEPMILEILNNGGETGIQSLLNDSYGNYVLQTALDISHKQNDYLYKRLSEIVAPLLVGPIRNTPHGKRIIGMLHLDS", "test": "Mg; RNA-MaP; 20 mM Na-HEPES pH 7.4, 30 mM KOAc, 0.75 mM MgCl2, 0.1% Tween-20, 5% glycerol, 0.1 mg/mL BSA, 2 mM DTT; 25 C; 0.0125-409.6 nM protein", "details": "tags: N-His6-TEV cleaved; C-SNAP kept, Cy3B-labelled; label: tethered on chip by stalled RNA polymerase", "units": {"Kd": "nM"}, "values": [
      {"binder": "UCUCUUUUUAUAUUGUCUCUU (ssRNA)", "note": "[Ib_S1_P4E.1_K4.1_C4.1_H4.1_[G2T]_A4.1_F4.1_[A9G]_T4.1]", "Kd": "> 2300"},
      {"binder": "B1", "Kd": 14},
      {"binder": "B2", "Kd": 1250},
      {"binder": "B3", "Kd": 9.13},
      {"binder": "B4", "Kd": 81.5},
      {"binder": "B5", "Kd": 1560},
      {"binder": "B6", "Kd": 9.6},
      {"binder": "B7", "Kd": 104},
      {"binder": "B8", "Kd": 1060},
      {"binder": "B9", "Kd": 8.52},
      {"binder": "B10", "Kd": 1.14},
      {"binder": "B11", "Kd": 983},
      {"binder": "B12", "Kd": 275},
      {"binder": "B13", "Kd": 1.93},
      {"binder": "B14", "Kd": 74.8},
      {"binder": "B15", "Kd": 218},
      {"binder": "B16", "Kd": 113},
      {"binder": "B17", "Kd": 75.2},
      {"binder": "B18", "Kd": 9.39},
      {"binder": "B19", "Kd": 24.5},
      {"binder": "B20", "Kd": 99.7},
      {"binder": "B21", "Kd": 8.49},
      {"binder": "B22", "Kd": 12.9},
      {"binder": "B23", "Kd": 122},
      {"binder": "UCUCUUCGUAUAUUUUCUCUU (ssRNA)", "note": "[Ib_S1_P4E.1_K4.1_C4.1_H4.1_[T1C]_A4.1_F4.1_[A9T]_T4.1]", "Kd": 1420}
    ]}
  ]
}
